Assay results as given in patent US20180344870A1 (AGENUS, published 2018).
Positions count from the first letter of the chain named.

Experiments:
[1] = molecular target: T1, “4-aa human to mouse” CD137 protein (human with a murine segment, UniProt Q07011 24-186); assay: SPR, antibody captured by anti-human Fab, CD137 protein as analyte
T1 construct: also called “human to mouse” CD137 chimeric protein; not shown: Gly-Ser linker
Procedure: (§1) The chimeric CD137 proteins described above were tested in a surface plasmon resonance (SPR) assay. Briefly, a CM5 sensor chip was first coated with an anti-human Fab antibody using the amine coupling kit. […] Sensorgrams were recorded during both the association and dissociation phases.

[2] = molecular target: T2, human-mouse fusion construct 5015 of CD137, on Jurkat cells (human with a murine segment, UniProt Q07011 24-255); assay: flow cytometry on transfected Jurkat cells, anti-human IgG-PE detection
T2 construct: also called mutant 5015; murine switch mutant 5015
T2 chain: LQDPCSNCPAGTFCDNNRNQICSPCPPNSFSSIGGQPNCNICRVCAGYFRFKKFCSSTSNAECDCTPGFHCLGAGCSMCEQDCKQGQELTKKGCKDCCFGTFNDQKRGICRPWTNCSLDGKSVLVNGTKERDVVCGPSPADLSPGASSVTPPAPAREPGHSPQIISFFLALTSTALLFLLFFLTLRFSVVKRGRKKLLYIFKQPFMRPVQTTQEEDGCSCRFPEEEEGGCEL
Procedure: (§2) These engineered mutant cell lines were used to test whether anti-CD137 antibody can bind to particular switch mutants. Absence of binding would thereby indicate possible epitope locations. The cell binding assays were performed generally as described in Section 1.1. […] The cells were then washed and suspended in 80 μl of 2% paraformaldehyde (Electron Microscopy Sciences) prepared in PBS. Data were collected with BD FACS Canto and analyzed using BD FACSDiva software.

[3] = molecular target: T3, human-mouse fusion construct 5016 of CD137, on Jurkat cells (human with a murine segment, UniProt Q07011 24-255); assay: as above
T3 chain: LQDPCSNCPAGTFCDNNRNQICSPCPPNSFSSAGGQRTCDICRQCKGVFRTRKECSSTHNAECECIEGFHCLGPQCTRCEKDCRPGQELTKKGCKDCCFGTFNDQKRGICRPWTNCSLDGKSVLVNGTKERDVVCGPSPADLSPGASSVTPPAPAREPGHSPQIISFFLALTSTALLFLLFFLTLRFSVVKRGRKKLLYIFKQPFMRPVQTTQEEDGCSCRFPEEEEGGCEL
Procedure: as §2

[4] = molecular target: T4, human-mouse fusion construct 5018 of CD137, on Jurkat cells (human with a murine segment, UniProt Q07011 24-255); assay: as above
T4 construct: also called mutant 5018; murine switch mutant 5018
T4 chain: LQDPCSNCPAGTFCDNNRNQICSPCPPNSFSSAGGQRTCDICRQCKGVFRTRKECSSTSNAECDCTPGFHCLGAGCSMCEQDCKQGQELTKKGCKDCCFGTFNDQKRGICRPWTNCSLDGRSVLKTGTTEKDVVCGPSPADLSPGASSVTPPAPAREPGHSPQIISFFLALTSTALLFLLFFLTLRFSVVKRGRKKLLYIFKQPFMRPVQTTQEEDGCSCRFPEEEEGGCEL
Procedure: as §2

[5] = molecular target: T5, human-mouse fusion construct 5017 of CD137, on Jurkat cells (human with a murine segment, UniProt Q07011 24-255); assay: flow cytometry on transfected Jurkat cells, serial dilutions of antibody
T5 construct: on Jurkat cells
T5 chain: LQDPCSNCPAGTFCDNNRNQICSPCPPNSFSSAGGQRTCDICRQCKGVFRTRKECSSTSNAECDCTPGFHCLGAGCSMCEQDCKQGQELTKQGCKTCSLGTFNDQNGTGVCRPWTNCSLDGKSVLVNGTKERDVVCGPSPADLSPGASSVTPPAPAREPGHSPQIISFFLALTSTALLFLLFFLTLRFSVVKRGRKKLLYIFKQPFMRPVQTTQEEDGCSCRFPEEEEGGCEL
Procedure: as §2

[6] = molecular target: T6, human CD137 expressed on cells (human, UniProt Q07011 24-255); assay: flow cytometry on engineered Jurkat cells, anti-human lambda-PE detection
T6 construct: also called 4-1BB; TNFRSF9

[7] = molecular target: T7, “4-aa mouse to human” CD137 protein (murine with a human segment, UniProt P20334 24-187); assay: SPR, BA001 captured by anti-human Fab, chimeric protein at 60 nM as analyte
T7 construct: also called “mouse to human” CD137 chimeric protein; not shown: Gly-Ser linker
Procedure: as §1

[8] = molecular target: T8, mouse-human fusion construct 5015 (extracellular domain, Gly-Ser linker, 6×His tag) (murine with a human segment, UniProt P20334 24-187); assay: ELISA (DELFIA europium read-out), antigen coated at 5 µg/ml
T8 construct: also called mCD137-human53-80; not shown: Gly-Ser linker
T8 chain (part 1 of 2): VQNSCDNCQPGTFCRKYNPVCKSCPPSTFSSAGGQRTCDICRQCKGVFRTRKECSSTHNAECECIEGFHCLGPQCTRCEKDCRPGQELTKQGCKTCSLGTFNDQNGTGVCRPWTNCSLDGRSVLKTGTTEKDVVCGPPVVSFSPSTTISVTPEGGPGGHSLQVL
T8 chain (part 2 of 2): HHHHHH
Procedure: (§3) Specifically, 50 μl of 5 μg/ml of each antigen diluted in 1×PBS pH 7.4 (Gibco™, Cat no. 10010056) was added to each well in a Thermo Scientific™ Black 96-Well Immuno Plate (Thermofisher Scientific, Cat no. 437111) and incubated at 4° C. overnight. The plate was washed three times with PBS using the Biotek 405TS microplate washer with Biostack3 microplate stacker. The plate was blocked by incubating with 300 ul/well of 3% Milk Powder in PBS (Marvel dried skimmed milk powder) for 1 hour at room temperature, and were washed three times with 1×PBS. The antibodies titrated in 3% M-PBS (Milk Powder in 1×PBS) were added to the plate and incubated for 1 hour at room temperature. The plate was washed three times with 1×PBS with 0.1% Tween20 (Sigma Aldrich, Cat No. P1379) and three times with 1×PBS using the plate washer. 50 μl Biotin-SP (long spacer) AffiniPure Goat Anti-Human IgG, Fcγ Fragment Specific (Jackson Immuno Research, Code:109-065-098, Lot no. 123909) diluted at 1:2000 in 3% M-PBS was added to each well and incubated for 1 hour at room temperature. The plate was washed three times with 1×PBS with 0.1% Tween20 and three times with 1×PBS using the plate washer. For detection, 50 μl of DELFIA® Europium-labeled streptavidin (PerkinElmer, Part no. 1244-360, Lot no. 2195997) diluted in the DELFIA® Assay buffer (PerkinElmer, Part no. 4002-0010, Lot no. 646702) at 1:500 was added to each well and incubated for 1 hour at room temperature. The plate was washed three times with 1×PBS with 0.1% Tween20 and three times with PBS using the plate washer.

[9] = molecular target: T9, extracellular domain of human CD137 with Gly-Ser linker and 6×His tag (human, UniProt Q07011 24-186); assay: ELISA (DELFIA europium read-out), antigen coated at 5 µg/ml, IgG1 titrated
T9 construct: also called human CD137 (ELISA antigen); not shown: Gly-Ser linker
Procedure: as §3

[10] = molecular target: T10, mouse-human fusion construct 5017 (extracellular domain, Gly-Ser linker, 6×His tag) (murine with a human segment, UniProt P20334 24-187); assay: as above
T10 construct: not shown: Gly-Ser linker
T10 chain (part 1 of 2): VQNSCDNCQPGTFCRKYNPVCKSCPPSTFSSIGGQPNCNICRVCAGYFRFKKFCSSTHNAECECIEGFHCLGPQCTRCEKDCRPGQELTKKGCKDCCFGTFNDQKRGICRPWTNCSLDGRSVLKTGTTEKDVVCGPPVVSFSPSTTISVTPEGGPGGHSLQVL
T10 chain (part 2 of 2): HHHHHH
Procedure: as §3

B1: BA001 (IgG1) (antibody, V domains shown)
VH: not shown
VL: SYVLTQPPSVSVAPGETARITCGGDDIGDKRVHWYQKKPDQAPVLVVYEDRYRPSGIPERISGSNSGNTATLTLSRVEAGDEADYYCQVWDSSSDHPGVFGGGTQLIILG
modifications: N-terminal X = glutamine (Q) or pyroglutamate (pE)
notes: Human IgG1 with lambda light chain; also called anti-CD137 antibody BA001
- binding result [1]: no binding (tested: 60 nM)
- binding result [2]: binds
- binding result [3]: binds
- binding result [4]: binds
- binding result [5]: no binding
- binding result [6]: binds
- binding result [7]: binds

B2: BA049 (IgG1 format) (antibody, V domains shown)
VH: not shown
VL: B1 VL
modifications: N-terminal X = glutamine (Q) or pyroglutamate (pE)
- binding result [8]: no binding
- binding result [9]: binds
- binding result [10]: binds

B3: BA052 (IgG1 format) (antibody, V domains shown)
VH: QVQLVQSGAEVKKPGASVKVSCKASGYNFSGYYMHWVRQAPGQGLEWMGWINPNSGGTNYAQKFQGRVTITRDTSISTAYMELSRLRSDDTAVYYCAREPGYYGSGLDYWGQGTLVTVSS
VL: B1 VL with D91Y, S94P
modifications: N-terminal X = glutamine (Q) or pyroglutamate (pE)
- binding result [8]: no binding
- binding result [9]: binds
- binding result [10]: binds

B4: BA050 (IgG1 format) (antibody, V domains shown)
VH: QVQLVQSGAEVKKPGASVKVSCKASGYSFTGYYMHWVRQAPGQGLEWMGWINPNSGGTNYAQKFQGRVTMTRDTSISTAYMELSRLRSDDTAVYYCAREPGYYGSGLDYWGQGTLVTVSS
VL: B1 VL with D91N
modifications: N-terminal X = glutamine (Q) or pyroglutamate (pE)
- binding result [8]: no binding
- binding result [9]: binds
- binding result [10]: binds

B5: BA051 (IgG1 format) (antibody, V domains shown)
VH: not shown
VL: B1 VL with H96Y
modifications: N-terminal X = glutamine (Q) or pyroglutamate (pE)
- binding result [8]: no binding
- binding result [9]: binds
- binding result [10]: binds
